Measurements: patent US20120122214A1

Target: bovine serum albumin (bovine) (UniProt P02769)
Assay: flow cytometry; iPS-MP in suspension with control fluorescent particles coated with only albumin, 37° C., 90 minutes

Sequence of bovine serum albumin (bovine) (P02769 25-607 limits assumed): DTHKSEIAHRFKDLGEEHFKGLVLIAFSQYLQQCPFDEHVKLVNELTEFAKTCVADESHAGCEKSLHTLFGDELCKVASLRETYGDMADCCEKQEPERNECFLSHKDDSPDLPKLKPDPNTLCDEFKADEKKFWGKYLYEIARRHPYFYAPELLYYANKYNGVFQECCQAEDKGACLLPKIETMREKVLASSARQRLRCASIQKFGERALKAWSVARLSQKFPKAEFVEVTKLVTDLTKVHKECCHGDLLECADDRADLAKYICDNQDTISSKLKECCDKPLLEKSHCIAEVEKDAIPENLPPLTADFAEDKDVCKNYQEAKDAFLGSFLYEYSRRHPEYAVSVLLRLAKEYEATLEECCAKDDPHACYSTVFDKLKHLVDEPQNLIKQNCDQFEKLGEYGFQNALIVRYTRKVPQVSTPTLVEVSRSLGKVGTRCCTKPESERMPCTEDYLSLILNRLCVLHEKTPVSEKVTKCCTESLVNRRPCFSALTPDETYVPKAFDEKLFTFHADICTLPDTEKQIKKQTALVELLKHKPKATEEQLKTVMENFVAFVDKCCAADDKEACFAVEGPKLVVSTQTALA

- mean fluorescence intensity: 781
- percent of cells bound to the beads: 25.5%
Substance: single-chain antibody (scFv) recognizing human β-amyloid peptide, derived from mouse hybridoma clone 3D6, fused to mouse IgG2a Fc portion and mouse Fc receptor (FcγRI) trans-cell membrane-cytoplasm portion, expressed on iPS-MP
